According to patent US8933202B2, “AXL antibodies” (U3 Pharma GmbH, priority 2007, dated 2015):

Columns and labels:
NIH3T3-pLXSN control = assay: Primary FACS screen of hybridoma antibodies, binding to mock control cells
Description: Monoclonal rat anti-AXL antibodies were raised by injection of approximately 10×10^6 frozen cells of RatI-AXL cl.2 both i.p. and subcutaneously into Lou/C or Long Evans rats. After an 8-week interval, a final boost was given i.p and subcutaneously 3 d before fusion. Fusion of the myeloma cell line P3X63-Ag8.653 with the rat immune spleen cells was performed according to standard procedures and yielded 105 hybridomas. After 2 weeks, first supernatants from hybridomas were collected and tested in a primary FACS screen for binding to NIH3T3-AXL cl.7 fibroblasts versus NIH3T3-Mock control cells. Clones positive for AXL binding were further cultivated. From 50 ml supernatant of these clones, antibodies were purified and re-analyzed for specific binding to AXL on NIH3T3-AXL cl.7 fibroblasts versus NIH3T3-Mock control cells. Purified antibodies specifically binding to NIH3T3-AXL cl. 7 fibroblasts but not NIH3T3-Mock control cells were furthermore tested in Akt-Kinase phosphorylation ELISAs, and ELISAs to determine the isotype were performed. For purification of rat antibodies, supernatants were spun for 20 minutes at 5,000 g and subsequently sterile filtered. 500 μl of protein G sepharose FF were added and incubated at 4° C. for at least 1 h on a spinning wheel. […]

human AXL-ECD = target: T1, human AXL-ECD (Homo sapiens, UniProt P30530); assay: Competition ELISA on AXL-ECD coated plates; assay type: binding; settings: 10 μg/ml unbiotinylated, 0.5 μg/ml biotinylated antibody
T1 construct: purchased R&D Systems 154-AL
T1 sequence (P30530 26-451 limits assumed): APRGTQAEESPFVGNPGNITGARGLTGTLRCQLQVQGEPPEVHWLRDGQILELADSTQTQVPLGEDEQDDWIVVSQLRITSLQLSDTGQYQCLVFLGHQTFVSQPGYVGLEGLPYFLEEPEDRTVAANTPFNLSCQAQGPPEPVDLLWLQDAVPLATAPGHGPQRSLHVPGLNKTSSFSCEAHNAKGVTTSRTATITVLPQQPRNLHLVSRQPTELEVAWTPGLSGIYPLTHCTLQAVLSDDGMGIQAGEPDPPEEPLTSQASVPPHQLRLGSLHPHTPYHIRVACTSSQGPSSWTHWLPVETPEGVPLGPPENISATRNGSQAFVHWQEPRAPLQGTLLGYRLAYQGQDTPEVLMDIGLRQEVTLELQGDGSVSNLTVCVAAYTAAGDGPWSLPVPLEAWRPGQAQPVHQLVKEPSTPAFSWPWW
Description: Therefore binding of biotinylated anti-AXL antibodies to AXL-ECD domain-coated plates preincubated with anti-AXL antibodies was determined in a competition ELISA. […] On day 1, black 96 well Maxi-Sorp plates (Nunc) were coated with 100 μl/well of 1 μg/ml human AXL-ECD (R&D Systems #154-AL) in PBS over night at 4° C. […] After washing 6× with wash buffer (PBS, 0.1% TWEEN-20), 80 μl/well AP-conjugated Streptavidin (Chemicon #SA110) diluted 1:4,000 in blocking buffer were added, incubated for 20 min at room temperature washed again 6× with wash buffer and finally washed once with PBS. For detection, 100 μl/well Attophos substrate solution (Roche #11681982) were added. Using a Victor plate reader (Perkin Elmer), the fluorescence of each well was collected at an excitation wavelength of 430 nm an emission wavelength of 580 nm.

[1] = system: NCI-H292 lung cancer cells; assay: Wound healing/scratch assay; assay type: cell-based, human; settings: 10 μg/ml antibody, 24 h, compared to isotypic control antibody
Source text: To examine the migration and proliferation rates of different cells and culture conditions, in vitro wound healing/scratch assays are being employed for many years. These assays generally involve growing a confluent cell monolayer first. A small area is then disrupted and a group of cells are being destroyed or displaced by scratching a line through the layer with, for example, a pipette tip. The open gap is then inspected microscopically over time as the cells move in and fill the damaged area (“healing”). In brief, 1.5×10^6 NCI-H292 lung cancer cells were seeded per well of a 12 well dish and cultured in normal growth medium (RPMI, 10% FCS). After 8 h, cells were rinsed with PBS and starved in low serum medium (RPMI, 0.5% FCS) over night for 24 h. Using a sterile 200 μl pipette tip, three separate uniform wounds per well were scratched through the confluent NCI-H292 cell monolayers. […] Cells were permitted to migrate into the area of clearing for 24 h, washed once with PBS and fixed with ice cold Methanol (100%) at −20° C. After cells were stained with crystal violet (0.5% in 20% Methanol), rinsed with water and dried over night, photos of the wounds were taken.

AXL = target: T2, AXL (Homo sapiens, UniProt P30530); assay: AXL receptor tyrosine phosphorylation ELISA; assay type: cell-based; parameters: expressed in transfected cells; host or cells: NIH3T3-AXL cl.7 (pLXSN-hAXL) and NCI-H292 lung cancer cells (endogenous AXL); settings: 10 μg/ml antibody, 400 ng/ml Gas6; NIH3T3-AXL cl.7 fibroblasts and NCI-H292 lung cancer cells
T2 sequence (P30530 26-894): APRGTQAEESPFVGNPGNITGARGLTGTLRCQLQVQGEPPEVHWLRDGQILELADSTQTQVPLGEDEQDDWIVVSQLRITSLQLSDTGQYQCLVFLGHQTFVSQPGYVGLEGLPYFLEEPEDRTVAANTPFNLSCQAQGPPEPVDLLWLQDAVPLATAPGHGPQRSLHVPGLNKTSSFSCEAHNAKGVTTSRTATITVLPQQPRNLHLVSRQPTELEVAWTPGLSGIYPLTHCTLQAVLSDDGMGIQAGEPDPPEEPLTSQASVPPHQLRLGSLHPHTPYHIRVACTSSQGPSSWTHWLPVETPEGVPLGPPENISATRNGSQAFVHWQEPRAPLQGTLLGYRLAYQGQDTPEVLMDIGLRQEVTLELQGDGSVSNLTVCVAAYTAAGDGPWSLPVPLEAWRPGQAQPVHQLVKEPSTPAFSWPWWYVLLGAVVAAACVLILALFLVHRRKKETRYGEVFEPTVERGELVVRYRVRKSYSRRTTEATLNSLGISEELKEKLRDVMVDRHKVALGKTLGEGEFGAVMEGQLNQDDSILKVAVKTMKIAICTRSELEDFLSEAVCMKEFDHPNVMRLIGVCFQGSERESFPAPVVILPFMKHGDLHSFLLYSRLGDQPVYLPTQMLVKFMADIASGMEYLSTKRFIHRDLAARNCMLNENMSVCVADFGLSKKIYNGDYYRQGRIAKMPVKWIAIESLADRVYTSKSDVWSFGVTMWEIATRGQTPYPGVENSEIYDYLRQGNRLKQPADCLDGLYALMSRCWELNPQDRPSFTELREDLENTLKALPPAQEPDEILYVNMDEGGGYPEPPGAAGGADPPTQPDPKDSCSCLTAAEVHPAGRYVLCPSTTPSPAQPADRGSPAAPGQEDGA
Description: ELISA experiments were performed in order to investigate whether the rat anti-AXL antibodies of the invention are able to block ligand Gash-mediated activation of AXL. Gas6-mediated AXL activation was detected by increased receptor tyrosine phosphorylation. In brief, on day 1, 3×10^4 cells per well were seeded in normal growth medium in flat-bottom 96 well plates. The next day, growth medium was replaced by serum-free medium to starve cells over night for 24 h. Also over night, black Maxi-Sorp 96 well plates (Nunc) were coated with mouse anti-phospho-tyrosine antibody 4G10 at 2 μg/ml PBS and 4° C. On day 3, the 4G10 antibody solution was removed and Maxi-Sorp wells were blocked with PBS, 0.5% BSA for at lest 4 h at room temperature. […] Medium was then flicked out and cells were lysed in lysis buffer (50 mM HEPES, pH 7.5, 150 mM NaCl, 1 mM EDTA, 10% glycerine, and 1% Triton X-100) supplemented with phosphatase and protease inhibitors (10 mM Na4P2O7, 1 mM phenylmethylsulfonyl fluoride, 1 mM orthovanadate, 1 mM NaF, and 0.5% aprotinin) for 30 min on ice. […] Using a Victor plate reader (Perkin Elmer), the fluorescence of each well was collected at an excitation wavelength of 430 nm and an emission wavelength of 580 nm.

B1: 10D12: antagonistic rat anti-AXL monoclonal antibody (antibody, V domains shown)
VL: DIQMTQAPSSLPASLGDRVTIACRASQDIGNYLRWFQQKPGKSPRLMISGATNLAAGVPSRFSGSRSGSDYSRTISSLESEDMADYYCLQSKESPWTFGGGTKLELK
VH: EVQLQESGPGLVKPSQSLSLTCSVTGYSITSNYWGWIRKFPGNKMEWMGYITNSGGTAYNPSLKSRISITRDTSKNQFFLQLNSVIPEDSATYFCSRTPWDWGQGVMVTVSS
FACS shift NIH3T3-pLXSN control (NIH3T3-pLXSN control): 0.5
competition with antagonistic anti-AXL antibodies for binding to AXL-ECD (human AXL-ECD): compete with each other for the same or structurally adjacent epitopes
re-population of the cleared area (wound closure) [1]: reduced the re-population of the cleared area
ligand-mediated AXL activation (phosphorylation) (AXL): able to block or reduce ligand-mediated AXL activation
